From the nanobody polyreactivity screen of Harvey et al. (2022)

Assay: yeast display, Sf9 membrane polyspecificity reagent, FACS + sequencing; frameworks hold sequencing errors
Summary of the method: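 In a synthetic yeast display library (Saccharomyces cerevisiae BJ5465), nanobody expression was induced with galactose for 36–48 hours. FACS gates were set low and high (top ~1%) using anti-HA fluorescence for expression and streptavidin fluorescence for binding of the Sf9 membrane reagent. Each polyreactivity label is drawn from the gate of origin.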

Row | Sequence | polyreactivity (PSR sort gate)
1 | QFQLVESGGGLVQAGGSLRLSCAASGFIFSTYTMGWYRQAPGKERELVAAISSGGGTYYADSVKGRFTISRDNAKNTVYLQMNSLKPEDTAVYYCAALVYSSYPAGWYDYWGQGTQVTVSS | high polyreactivity
2 | QFQLVESGGGLVQAGGSLRLSCAASGFIFYKYAMGWYRQAPGKERELVAAISSIGGRTYYADSVKGRFTISRDNAKNTVYLQMNSLKPEDTAVYYCAARYRRTIPWFAPGNDHKYWGQGTQVTVSS | high polyreactivity
3 | QFQLVESGGGLVQAGGSLRLSCAASGFILWTYAMGWYRQAPGKERELVAAISTTGGSTYYADSVKGRFTISRDNAKNTVYCQMNSLKPEDTAVYYCAAQVGRGYEVYPVYKYGYWGQGTQVTVSS | high polyreactivity
4 | QFQLVESGGGLVQAGGSLRLSCAASGFTFDDYDMGWYRQAPGKERELVAAISWSGGSTYYADSVKGRFTISRDNSKNTVYLQMNSLKPEDTAVYYCAAERSYGGFDYWGQGTQVSVSS | low polyreactivity
5 | QFQLVESGGGLVQAGGSLRLSCAASGFTISWNTMGWYRQAPRKERELVATISGSGGRTYYADSVKGRFTISRDNAKNTVYFQMNSMKPEDTAVYYCAARYVLGGQGTSRRVRGGYWGQGTQLTVSS | high polyreactivity
6 | QFQLVESGGGLVQAGGSLRLSCAASGFTLRTYAMGWYRQAPGKERELVAAITVSGGTYYADSVKGRFTISRDNAKYTVYLQMNSLKPEDTAVYYCTAKRFGTGFDYWGQGTQVTVSS | low polyreactivity
7 | QFQLVESGGGLVQAGGSLRLSCAASGIIFAQYTMGWYRQAPGKDRELGAAINRNGGSTYYADSVKGRFTISRDNAKNTVYLQMNSLKPEDTAVYYCIADALGFRYDYWGQGTQVTVSS | low polyreactivity
8 | QFQLVESGGGLVQAGGSLRLSCAASGIIFHIYAMGWYRQAPGKERELVAAISTGSSTYYADSVKGRFTISRDNAKNTVYLQMNSLKPEDTSVSYCNAVSRYLWVKGFDYWGQGTQVTVSS | low polyreactivity
9 | QFQLVESGGGLVQAGGSLRLSCAASGITFKTYAMGCYRQAPGKERELFATINRGSRTNYADSVKGRFTISRDNAKNTVYLQMNSLKPEDTAVYYCAAHYTTFIPSPDGDYLGQGTQVTVSS | low polyreactivity
10 | QFQLVESGGGLVQAGGSLRLSCAASGITFRDYAMGWYRQAPGKERELVAAISTRGVRTYYADSVKGRFTISRDNAKNTVYLQMNSLKPEDTAVYYCAARSVTYWWVGYEFYYWGQGTQVTVSS | high polyreactivity
11 | QFQLVESGGGLVQAGGSLRLSCAASGITIRWYAMGWYRQAPGKERELVAGISSRGDSTYYADSVKGRFTISRDNAKNTVYLQMNSLKREDTAVYYCAAPGSSYRGRGYDYWGQGTQVTVSS | high polyreactivity
12 | QFQLVESGGGLVQAGGSLRLSCAASGLIFRHYVMGWYRQAPGKERELVAAITSRGGTTYYADSVKGRFTISRDNEKNTVYLQMNIMKPEDTAVYYCNAVDIDPTRYEYDYWGQVTQVTVSS | high polyreactivity
13 | QFQLVESGGGLVQAGGSLRLSCAASGLIFVGNPMGWYRQAPGKERELVAAISSRGGRTYYADSVKGRFTISRDNAKNTVYLQMNSLKPEDTAVYYCIAANSQWGFEYWGQGTQVTVSS | high polyreactivity
14 | QFQLVESGGGLVQAGGSLRLSCAASGLTFSRYAMGWYIQAPGKERELVAAITCSGSSTYYSHSVKGRFTISRDNAKNNVYLQMNSLKPEDTAVYYCAARYGYSRGTYYRSDYWGQGTQVTVSS | high polyreactivity
15 | QFQLVESGGGLVQAGGSLRLSCAASGNILPAYAMGLYRQAPGKERELVAAISKSGGRTYYADSVKGRFTISLDNAKNTVYLQMNSLKPEDTAVYYALLTVLRAVPYTVRYDYWGQGTQVNVSS | high polyreactivity
16 | QFQLVESGGGLVQAGGSLRLSCAASGRIFDLNAMGWYRQAPGKERELVAAITWSGDSTYYADSVKGRITISRDNAKNTVYLQLNSLKPEDTAVYYCAAASRTSYSWVDYEFDYWGQGTQVTVSS | low polyreactivity
17 | QFQLVESGGGLVQAGGSLRLSCAASGRIFKPNAMGWYRQAPGKERELVAAIRYSTGRTYYADSVKGRFTISRDNAKNTVYLQMNSLKPEDTAVYYCAARRVEYYGSQNGYWGQGTQVTVSS | high polyreactivity
18 | QFQLVESGGGLVQAGGSLRLSCAASGRIFVLNAMGWYRQAPGKERELVAAISGSGSRTYYADSVKGRFTISRDNAKNTVYLQMNSLNPEDTAVYYCNNVSRRSEHTYDYWGQGTQVTVSS | high polyreactivity
19 | QFQLVESGGGLVQAGGSLRLSCAASGRIFVYYMGWYRQAPRKERELVAALSFGGGSTYYADSVKGRFTISRDNAKNTVYLQMNSLKPEDNAVYYCNADGDDLDWNYYLVQYDYWGQGTQVTVSS | low polyreactivity
20 | QFQLVESGGGLVQAGGSLRLSCAASGRIFYRYAMGWYIQAPGKERELVAAITSGTSTNYADSVKGRFTISRDNAKNTVYVQMNSLKPEDTAVYYCAKRYYWKYAEYDYWGQGTLVTVSS | high polyreactivity

Row | Sequence | polyreactivity (PSR sort gate)
21 | QFQLVESGGGLVQAGGSLRLSCAASGRIFYYNAMGWYRQAPGKERELVASITGSGGSTYYADSVKGRFTISRDNAKNTVYLQMNSLKPEDTAVYYCAKREYLYPYYYVAKYDYWGQGTQVTVSS | low polyreactivity
22 | QFQLVESGGGLVQAGGSLRLSCAASGRTFGFNAMGWYRQAPGKERELVAALSGSGGRTYYADSVQGRFTISRDNAKNTVYLQMNSLKPEDTAVYYCAAGARRGGSGDWGQGTQVTVSS | high polyreactivity
23 | QFQLVESGGGLVQAGGSLRLSCAASGRTFPWYAMGWYRQEPGKDRELVAAISWTGGSTYYADSVKGRFTISRDNAKNTVYLQMNSLKPEDTAFYYCAASPWYLKYEYWGQGTQVTVSW | low polyreactivity
24 | QFQLVESGGGLVQAGGSLRLSCAASGRTFRGYAMGWYRQAPGKERELVAAITWRGGSTYYADSVKGRFTISRDNAKNTVYLQMNSLKPEDTAVYYCNTLVWSYLGGYYSRFDYWGQGTQVTVSS | high polyreactivity
25 | QFQLVESGGGLVQAGGSLRLSCAASGRTFRYYAMGGYIQAPGKERELVGAITTGSSTYYADSVKGRFTISRDNAKNTVYLQMNSLKTEDTAVYYCHVFQGTRYGYWGQGTKVTVSS | low polyreactivity
26 | QFQLVESGGGLVQAGGSLRLSCAASGRTFRYYTMGWYRQAPGKEREFVAVITVNGGSTYYADSVKGRFTISRDNAKNTVYLQMNSLKPEDTAVYYCAKSYGSRHRYWPLYYWGQGTQVTVSS | high polyreactivity
27 | QFQLVESGGGLVQAGGSLRLSCAASGRTFVPYVMGWYRQAPGKERELVASITSGGSTYYADSVKGRFTISRDNAKNTVYLQMNSLNPEDTAVYYCATRQSAERWGYYYWGQGTQVTVSS | low polyreactivity
28 | QFQLVESGGGLVQAGGSLRLSCAASGRTFYVNAMGWYRPSPGKERELVAGISFSDGSTYYADSVKGRFTISRDNAKNTVYLQMNSLKPEDTAVYYCATVGAFDIYYGYGYWGQGTQVTVSS | low polyreactivity
29 | QFQLVESGGGLVQAGGSLRLSCAASGRTFYYYVMGWYRQAPGKERELVAAITIRGGSTYYADSVKGRFTISRDNAKNTVYLQMNSLKPEDTAVYYCNARGGSSTYGNYYWGQGTQVTVSS | low polyreactivity
30 | QFQLVESGGGLVQAGGSLRLSCAASGSIFDAYAMGWYRQAPGKERELVPAITYSGGSTYYADSVKGRFTISRDNAKNTVYLQMNSLKPEDTAVYYCNTDSRVRTWFRAFTFDSWGQGTQVTVSS | low polyreactivity
31 | QFQLVESGGGLVQAGGSLRLSCAASGSIFDRNAMGWYRQAPGKERELVAAITSGGSTYYADSVKGRFTISRDNAKNTVYLQMNSLKPEDNAVYYCNADTDPPVPLYYWGQGTQVTVSS | low polyreactivity
32 | QFQLVESGGGLVQAGGSLRLSCAASGSIFFYYAMGWYRQAPGKERELVAAITFTGGSTYYADSVKGRFTISRDNAKNTVYLQMNSLKPEDTAVYYCADYWYYGDEYVYWGQGTQVTVSS | high polyreactivity
33 | QFQLVESGGGLVQAGGSLRLSCAASGSIFIYYAMGWYRQAPGKEREFVAAITRSGGSTFYADSVKGRFTISRDNAKNTVYLQMNSLKPEDTAVYYCATSYEGYYSIIGNKYDYWGQGTQVTVSS | high polyreactivity
34 | QFQLVESGGGLVQAGGSLRLSCAASGSIFLWYAMGWYRQAPGKERELVAVITSSGGTTYYADSVKGRFTISRDNAKNTVYLQMNCMKPEDNAVYYSAADFYRHPPGSLTKLYYYWGQGTQVTVSS | low polyreactivity
35 | QFQLVESGGGLVQAGGSLRLSCAASGSIFSVYAMGWYRQAPGKERELVAAITNRGGSTYYADSVKGRFTISRDNAKNTVYLQMNSLKPEDTAVYYCARGPVSYGGLYDYWGQGTQVIVSS | low polyreactivity
36 | QFQLVESGGGLVQAGGSLRLSCAASGSIFSYNAMGWYIQAPGKERELVASITSGGRTYYADSVKGRFTISRDNAKNTVYLQMYSLKPEDTAVYYCAAYQTGLHGFYSWGQGTQVTVSS | high polyreactivity
37 | QFQLVESGGGLVQAGGSLRLSCAASGSIFVLYAMGWYRQAPGKERELVAAITSAGSTYYADSVKGRFTISRDNAKNTVYLQMNSLKPEDTAVYYCAAGFYGYARHTWYNDWGQGTQVTVSS | high polyreactivity
38 | QFQLVESGGGLVQAGGSLRLSCAASGSIFYYNAMGWYRQAPGKEPELVAAINSGGTTYYADSVKGRFTISRDNAKNTVYVLMNSLKPEDTAVYYCAARTTRRSRYKYDYWGQGTQVSVSS | high polyreactivity
39 | QFQLVESGGGLVQAGGSLRLSCAASGSIIGPYAMGWYRQAPVKERELVAVISSGDSKNYADSVKGRFTISRDNAKNTVYLQMNSLKQEDNEVSYCRCKYDVAHHFWVYRYDYWGHGTQVTVSS | low polyreactivity
40 | QFQLVESGGGLVQAGGSLRLSCAASGSTFIYYAMGWYRQAPGKDRELVAAISGCGASTYYADSVKGGFTISRDNAKNTVYLQMNSLKPEDTAVYYCHFYRWRGYDYWGQGTQVTVSS | high polyreactivity
